# From patent publication US20150307589A1 (INSERM INSTITUT NATIONAL DE LA SANTE ET DE LA RECHERCHE …, published 2015)
# How the values were obtained:
# [1] = target: NRP1 expressed on COS cells (COS-NRP1); test: cell-based or functional assay
# [2] = target: the molecule itself; test: sucrose density gradient sedimentation of C6 cell lysates, anti-NRP1 western blot
molecule,measurement,setting,value
Sema3A (ligand),collapsed COS-1 cells expressing NRP1 and Plexin-A1,[1],> 50%
"NRP1 on rat C6 glioma cells (receptor, rat (Rat C6 glioma cells), UniProt Q9QWJ9 22-922, looked up, whole, on cells; It is not tied expressly to the C6 cells; also called neuropilin-1; receptor NRP1 on C6 cells) FRSDKCGGTIKIENPGYLTSPGYPHSYHPSEKCEWLIQAPEPYQRIMINFNPHFDLEDRDCKYDYVEVIDGENEGGRLWGKFCGKIAPSPVVSSGPFLFIKFVSDYETHGAGFSIRYEIFKRGPECSQNYTAPTGVIKSPGFPEKYPNSLECTYIIFAPKMSEIILEFESFDLEQDSNPPGGVFCRYDRLEIWDGFPEVGPHIGRYCGQKTPGRIRSSSGILSMVFYTDSAIAKEGFSANYSVLQSSISEDFKCMEALGMESGEIHSDQITASSQYGTNWSVERSRLNYPENGWTPGEDSYREWIQVDLGLLRFVTAVGTQGAISKETKKKYYVKTYRVDISSNGEDWITLKEGNKAIIFQGNTNPTDVVFGVFPKPLITRFVRIKPASWETGISMRFEVYGCKITDYPCSGMLGMVSGLISDSQITASNQGDRNWMPENIRLVTSRTGWALPPSPHPYINEWLQVDLGDEKIVRGVIIQGGKHRENKVFMRKFKIAYSNNGSDWKMIMDDSKRKAKSFEGNNNYDTPELRAFTPLSTRFIRIYPERATHSGLGLRMELLGCEVEVPTAGPTTPNGNPVDECDDDQANCHSGTGDDFQLTGGTTVLATEKPTIIDSTIQSEFPTYGFNCEFGWGSHKTFCHWEHDSHAQLRWRVLTSKTGPIQDHTGDGNFIYSQADENQKGKVARLVSPVVYSQSSAHCMTFWYHMSGSHVGTLRVKLHYQKPEEYDQLVWMVVGHQGDHWKEGRVLLHKSLKLYQVIFEGEIGKGNLGGIAVDDISINNHIPQEDCAKPTDLDKKNTEIKIDETGSTPGYEEGKGDKNISRKPGNVLKTLDPILITIIAMSALGVLLGAVCGVVLYCACWHNGMSERNLSALENYNFELVDGVKLKKDKLNPQSNYSEA",binding result,[2],binds
